Residue numbers refer to the chain shown, from its start. Each block holds one binder with its values, some of them ahead of it.
Key:
[1] = target: T1, Human GITR (cell surface) (human, UniProt Q9Y5U5 26-241); test: flow cytometry, transiently transfected HEK293F cells, 0.1 mg/mL antibody
T1 construct: also called hGITR; huGITR
T1 sequence: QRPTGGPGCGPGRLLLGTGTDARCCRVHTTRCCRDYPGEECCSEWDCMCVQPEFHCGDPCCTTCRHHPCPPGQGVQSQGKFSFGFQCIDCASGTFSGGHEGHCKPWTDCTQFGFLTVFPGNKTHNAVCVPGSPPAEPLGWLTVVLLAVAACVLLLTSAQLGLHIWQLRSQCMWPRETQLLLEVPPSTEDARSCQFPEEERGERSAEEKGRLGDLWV

Cyno GITR (cell surface) [2] = target: T2, Cyno GITR (cell surface) (cynomolgus monkey); test: as above
T2 construct: Presented on transfected or transduced HEK293 cells; also called cynomolgus monkey GITR
T2 chain: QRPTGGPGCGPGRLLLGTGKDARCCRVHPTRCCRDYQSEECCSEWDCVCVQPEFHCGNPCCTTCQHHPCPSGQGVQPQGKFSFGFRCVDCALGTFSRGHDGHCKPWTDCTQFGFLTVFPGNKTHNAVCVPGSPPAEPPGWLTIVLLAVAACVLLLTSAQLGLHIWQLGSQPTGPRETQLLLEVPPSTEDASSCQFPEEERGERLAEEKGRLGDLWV

[3] = target: T1, Human GITR (cell surface); test: cell-based or functional assay
Cyno GITR (cell surface) [4] = target: T2, Cyno GITR (cell surface); test: cell-based or functional assay
cyno GITR ECD = target: T3, cyno GITR ECD (cynomolgus monkey); test: SPR (ProteOn XPR36), mAb captured by anti-human Fc, GITR ECD as analyte, 25 °C
T3 construct: Only the extracellular domain stood in the SPR assay
T3 chain: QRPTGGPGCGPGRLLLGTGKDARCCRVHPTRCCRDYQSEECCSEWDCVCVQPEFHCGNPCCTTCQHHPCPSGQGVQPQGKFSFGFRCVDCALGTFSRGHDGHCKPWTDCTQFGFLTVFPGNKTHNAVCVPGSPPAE
Procedure: (§1) The affinities of the GITR antibodies to recombinant human GITR ECD were measured by Surface Plasmon Resonance (SPR) using a ProteOn XPR36 protein interaction array system (BioRad).
(§2) The rates of GITR ECD association and dissociation were measured for each variant. The biosensor surface was prepared by covalently coupling Goat anti-Human IgG (Fc) to the surface of a GLC chip (BioRad) using the manufacturer instructions for amine-coupling chemistry. Approximately 8800 RU (response units) of Goat anti-Human IgG (Fc) antibody (Jackson ImmunoResearch laboratories Prod #109-005-098) were immobilized. […] Since the mixture was 1:1 about 50% of these RU immobilized are expected to be goat anti-human Fc. The binding kinetics experiments were performed at 25° C. in running buffer (PBS pH 7.4, 0.005% P20, 3 mM EDTA). […] (1:3) serial dilutions of human GITR ECD or cyno GITR ECD starting at 100 nM were prepared in running buffer. […] The reference spots (Goat anti-Human IgG (Fc)-modified surface) containing no candidate captured were used as a reference surface. Capture of mAb was followed by 3 min injection (association phase) of antigen at 40 μL/min, followed by 10 min of buffer flow (dissociation phase). The chip surface was regenerated by injection of 0.85% phosphoric acid at 100 μL/min. Data were processed on the instrument software. Double reference subtraction of the data was performed by subtracting the curves generated by buffer injection from the reference-subtracted curves for analyte injections. Kinetic analysis of the data was performed using 1:1 Langmuir binding model with group fit. The result for each mAb was reported in the format of kon or on-rate, koff or off-rate, and KD (Equilibrium dissociation constant) (Table 7).

[5] = target: T4, recombinant human GITR ECD (human, UniProt Q9Y5U5 26-161); test: as above
T4 construct: also called human GITR extracellular domain
T4 sequence: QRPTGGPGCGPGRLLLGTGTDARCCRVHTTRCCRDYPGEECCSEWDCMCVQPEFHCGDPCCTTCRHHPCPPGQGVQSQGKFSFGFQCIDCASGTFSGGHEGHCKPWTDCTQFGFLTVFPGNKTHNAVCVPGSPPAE
Procedure: as §1, §2

Cyno GITR (cell surface) [6] = target: T2, Cyno GITR (cell surface); test: MSD-CAT, cyno against human GITR, study 1
Procedure: (§3) The MSD-CAT was developed in-house as a label-free method to determine affinity using intact cells in a high throughput format. The parental HEK293 cell line without any GITR expressed was used as a negative control.
(§4) These samples were prepared in DMEM Glutamax medium (Invitrogen, Prod #10569-044) with 0.05% Azide, 1% BSA, 3 mM EDTA. After equilibration the plates were centrifuged for 5 min at 2000 rpm and free anti-GITR mAbs are detected in the supernatant. The free anti-GITR mAbs in the mixture were detected by electrochemiluminescence (ECL) using MSD reader instrument. For detection, MSD-Streptavidin plates (MesoScale Discovery, Prod #L11SA-1) were coated with 0.1 μg/mL of biotinylated human-GITR antigen in assay buffer at 50 μL/well and equilibrated overnight (˜16 hr at 4° C.). […] After 1 hr, the plates were washed three times with wash buffer and 150 μL of MSD Read Buffer (MesoScale Discovery Cat #R92TC-1; prepared by diluting 1:3 of stock into d. H2O) were added per well. The plates were read immediately on the MSD Sector Imager 6000 Reader for luminescence levels. ECL signal detected by MSD was expressed in term of % free antibody in the mixture and the data was analyzed to determine affinity using a user defined equation (derived from the law of mass action) introduced in Prism software.

[7] = target: T1, Human GITR (cell surface); test: MSD-CAT, GITR-expressing HEK293 cells, study 1
Procedure: as §3, §4

Cyno GITR (cell surface) [8] = target: T2, Cyno GITR (cell surface); test: MSD-CAT, GITR-expressing HEK293 cells, study 1
Procedure: as §3, §4

binding result [1]: binds
binding result (Cyno GITR (cell surface) [2]): binds
B1: TRGB144 (antibody, human IgG1, kappa, V domains shown)
VH: QVQLVQSGAEVKKPGSSVKVSCKASGGTFSSYAISWVRQAPGQGLEWMGGIIPIFGTANYAQKFQGRVTITADESTSTAYMELSSLRSEDTAVYYCARHGFQRGYLDYWGQGTLVTVSS
VL: EIVLTQSPATLSLSPGERATLSCRASQSVSSYLAWYQQKPGQAPRLLIYDASNRATGIPARFSGSGSGTDFTLTISSLEPEDFAVYYCQQRSNWPLTFGQGTKVEIKR
notes: human IgG1/kappa

binding result [1]: binds
binding result (Cyno GITR (cell surface) [2]): binds
B2: TRGB20 (antibody, human IgG1, kappa, V domains shown)
VH: EVQLLESGGGLVQPGGSLRLSCAASGFTFSGYWMNWVRQAPGKGLEWVSGISSDGGSKYYADSVKGRFTISRDNSKNTLYLQMNSLRAEDTAVYYCAKEVVYDHYAALDYWGQGTLVTVSS
VL: B1 VL with S30N, Y32F, D50Y, R91Y, S92I, N93R
notes: human IgG1/kappa

binding result [1]: binds
binding result (Cyno GITR (cell surface) [2]): binds
B3: TRGB14 (antibody, human IgG1, kappa, V domains shown)
VH: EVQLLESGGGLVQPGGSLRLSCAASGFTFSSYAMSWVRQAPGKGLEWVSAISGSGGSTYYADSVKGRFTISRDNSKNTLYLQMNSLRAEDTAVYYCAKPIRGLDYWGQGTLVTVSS
VL: B1 VL with S30N, S31N, Y32F, R91G, S92F, W94A
notes: human IgG1/kappa

ADCC EC50, HEK293-hGITR target cells, NK-92 FcγRIIIa 176V/V effector cells [3]: 4.4 ng/mL
ADCC EC50, HEK293-cyno GITR target cells, NK-92 FcγRIIIa 176V/V effector cells (Cyno GITR (cell surface) [4]): 10.2 ng/mL
B4: TRGB23 (antibody, human IgG1, kappa, V domains shown)
VH: QVQLVQSGAEVKKPGSSVKVSCKASGGTFSSYAISWVRQAPGQGLEWMGGIIPIFGTANYAQKFQGRVTITADESTSTAYMELSSLRSEDTAVYYCARHGNWLHFNLDYWGQGTLVTVSS
VL: B1 VL

binding result (Cyno GITR (cell surface) [2]): binds
ADCC EC50, HEK293-hGITR target cells, NK-92 FcγRIIIa 176V/V effector cells [3]: 5.8 ng/mL
B5: TRGB34 (antibody, human IgG1, kappa, V domains shown)
VH: EVQLVQSGAEVKKPGESLKISCKGSGYSFTSYWIGWVRQMPGKGLEWMGIIYPGDSDTRYSPSFQGQVTISADKSISTAYLQWSSLKASDTAMYYCARDYGWHDFDYWGQGTLVTVSS
VL: B1 VL
notes: human IgG1/kappa

Kd (cyno GITR ECD): 8.6 nM
koff (cyno GITR ECD): 0.00257 s⁻¹
kon (cyno GITR ECD): 299000 M⁻¹ s⁻¹
Kd [5]: 0.0202 nM
koff [5]: 2.02e-05 s⁻¹
kon [5]: 996000 M⁻¹ s⁻¹
KD Fold Difference (Cy/Hu) (Cyno GITR (cell surface) [6]): 11.4 fold
Kd [7]: ~0.01 nM
Kd (Cyno GITR (cell surface) [8]): 0.115 nM
ADCC EC50, HEK293-hGITR target cells, NK-92 FcγRIIIa 176V/V effector cells [3]: 1.9 ng/mL
ADCC EC50, HEK293-cyno GITR target cells, NK-92 FcγRIIIa 176V/V effector cells (Cyno GITR (cell surface) [4]): 2.5 ng/mL
B6: TRGB153 (antibody, human IgG1, kappa, V domains shown)
VH: QVQLVQSGAEVKKPGSSVKVSCKASGGTFSSYAISWVRQAPGQGLEWMGGIIPIFGTANYAQKFQGRVTITADESTSTAYMELSSLRSEDTAVYYCARHAWLGHLDYWGQGTLVTVSS
VL: B1 VL
notes: human IgG1/kappa

binding result (Cyno GITR (cell surface) [2]): binds
ADCC EC50, HEK293-hGITR target cells, NK-92 FcγRIIIa 176V/V effector cells [3]: 7.6 ng/mL
B7: TRGB31 (antibody, human IgG1, kappa, V domains shown)
VH: EVQLVQSGAEVKKPGESLKISCKGSGYSFTSYWIGWVRQMPGKGLEWMGIIDPSDSDTRYSPSFQGQVTISADKSISTAYLQWSSLKASDTAMYYCARVFPYYGLVLDYWGQGTLVTVSS
VL: B1 VL
notes: human IgG1/kappa

binding result [1]: binds
binding result (Cyno GITR (cell surface) [2]): binds
B8: TRGB120 (antibody, human IgG1, kappa, V domains shown)
VH: B1 VH with H99P, G100R, F101R, Q102N, R103T, G104N, Y105E
VL: not shown
notes: human IgG1/kappa

binding result [1]: binds
binding result (Cyno GITR (cell surface) [2]): binds
B9: TRGB162 (antibody, human IgG1, kappa, V domains shown)
VH: B1 VH with T57N, G100V, F101Y, Q102K, Y105V, D107N
VL: B1 VL
notes: human IgG1/kappa

Kd (cyno GITR ECD): 10.6 nM
koff (cyno GITR ECD): 0.00197 s⁻¹
kon (cyno GITR ECD): 185000 M⁻¹ s⁻¹
Kd [5]: 3.04 nM
koff [5]: 0.00162 s⁻¹
kon [5]: 532000 M⁻¹ s⁻¹
ADCC EC50, HEK293-hGITR target cells, NK-92 FcγRIIIa 176V/V effector cells [3]: 2.9 ng/mL
ADCC EC50, HT1080-hGITR target cells, NK-92 FcγRIIIa 176V/V effector cells [3]: 6.7 ng/mL
ADCC EC50, HEK293-cyno GITR target cells, NK-92 FcγRIIIa 176V/V effector cells (Cyno GITR (cell surface) [4]): 25.8 ng/mL
B10: TRGB159 (antibody, human IgG1, kappa, V domains shown)
VH: B1 VH with F101R, Q102N, R103S, Y105R
VL: B1 VL
notes: human IgG1/kappa

binding result [1]: binds
binding result (Cyno GITR (cell surface) [2]): binds
B11: TRGB5 (antibody, human IgG1, kappa, V domains shown)
VH: EVQLLESGGGLVQPGGSLRLSCAASGFTFSGYWMSWVRQAPGKGLEWVSAISGSGGSTYYADSVKGRFTISRDNSKNTLYLQMNSLRAEDTAVYYCAKDFYWDAFDYWGQGTLVTVSS
VL: B1 VL
notes: human IgG1/kappa

binding result [1]: binds
binding result (Cyno GITR (cell surface) [2]): binds
B12: TRGB35 (antibody, human IgG1, kappa, V domains shown)
VH: B7 VH with G35S, S54G, V99H, F100R, P101W, Y102S, Y103T, G104S, V106L
VL: B1 VL
notes: human IgG1/kappa

binding result [1]: binds
binding result (Cyno GITR (cell surface) [2]): binds
B13: TRGB134 (antibody, human IgG1, kappa, V domains shown)
VH: B1 VH with G100R, F101W, Q102G, R103S, Y105N
VL: B1 VL
notes: human IgG1/kappa

From patent publication US20170260282A1 (Janssen / Centocor, published 2017)
